Target: T1, RNase H (UniProt P0A7Y4)
T1 sequence: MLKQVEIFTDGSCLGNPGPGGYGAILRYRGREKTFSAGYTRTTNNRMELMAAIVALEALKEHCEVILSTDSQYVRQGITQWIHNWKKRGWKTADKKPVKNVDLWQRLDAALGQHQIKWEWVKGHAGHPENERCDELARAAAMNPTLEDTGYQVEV
Experiment: flow

| Sequence | binding (fluorescence units) (bead fluorescence 4x over no-RNA control, released to 45 units on adding MgCl2) | binding (fluorescence units) (no RNA, equivalent to bead background of 44 units) |
| --- | --- | --- |
| AAGCCAGCTGCTTCCATTGGTGGGTCGTTTTTGCTGTCACCAGCAACATTGCCTCGTCTA [EF1a capture oligo:EF1a RNA hybrid] | 196 | – |
| AAGCCAGCTGCTTCCATTGGTGGGTCGTTTTTGCTGTCACCAGCAACATTGCCTCGTCTA [EF1a capture oligo without RNA] | – | 47 |
